Results published in patent US20260356929 (published 2026).

B1: HC3 LC1 (antibody, V domains shown)
VH: EVQLVESGGGLVQPGGSLRLSCAASGFDFSRYWMSWVRQAPGKGLEWISEIHPYSSTINYTPSVKDRFTISRDNAKNSLYLQMNSLRDEDTALYYCARAFAYWGQGTLVTVSS
VL: DVVMTQSPLSLPVTLGQPASISCKSSQSLLDSDGKTYLNWFQQRPGQSPRRLIYLVSKLDSGVPDRFSGSGSGTDFTLKISRVEAEDVGVYYCWQGTHFPYTFGGGTKVEIKR
B2: HC4 LC2 (Vexobicizumab) (antibody, V domains shown)
VH: EVQLVESGGGLVQPGGSLRLSCAASGFDFSRYWMSWVRQAPGKGLEWVAEIHPYSSTINYTPSVKDRFTISRDNAKNSLYLQMNSLRSEDTAVYYCARAFAYWGQGTLVTVSS
VL: DVVMTQSPLSLPVTLGQPASISCRSSQSLLDSDGKTYLNWELQRPGQSPRRLIYLVSKLDSGVPDRFSGSGSGTDFTLKISRVEAEDVGVYYCWQGTHFPYTFGQGTKVEIKR
B3: HC2 LC1 (antibody, V domains shown)
VH: EVQLVESGGGLVQPGGSLRLSCAASGFDFSRYWMSWVRQAPGKGLEWVAEIHPYSSTINYTPSVKDRFIISRDNAKNSVYLQLNSLRAEDTAVYYCARAFAYWGQGTLVTVSS
VL: DVVMTQSPLSLPVTLGQPASISCKSSQSLLDSDGKTYLNWFQQRPGQSPRRLIYLVSKLDSGVPDRFSGSGSGTDFTLKISRVEAEDVGVYYCWQGTHFPYTFGGGTKVEIKR
B4: HC5 LC1 (antibody, V domains shown)
VH: EVQLVESGGGLVQPGGSLRLSCAASGFDFSRYWMSWVRQAPGKGLEWVSEIHPYSSTINYTPSVKDRFTISRDNAKNSLYLQMNSLRAEDTAVYYCARAFAYWGQGTLVTVSA
VL: DVVMTQSPLSLPVTLGQPASISCKSSQSLLDSDGKTYLNWFQQRPGQSPRRLIYLVSKLDSGVPDRFSGSGSGTDFTLKISRVEAEDVGVYYCWQGTHFPYTFGGGTKVEIKR
B5: HC3 LC2 (antibody, V domains shown)
VH: EVQLVESGGGLVQPGGSLRLSCAASGFDFSRYWMSWVRQAPGKGLEWISEIHPYSSTINYTPSVKDRFTISRDNAKNSLYLQMNSLRDEDTALYYCARAFAYWGQGTLVTVSS
VL: DVVMTQSPLSLPVTLGQPASISCRSSQSLLDSDGKTYLNWELQRPGQSPRRLIYLVSKLDSGVPDRFSGSGSGTDFTLKISRVEAEDVGVYYCWQGTHFPYTFGQGTKVEIKR
B6: HC5 LC2 (antibody, V domains shown)
VH: EVQLVESGGGLVQPGGSLRLSCAASGFDFSRYWMSWVRQAPGKGLEWVSEIHPYSSTINYTPSVKDRFTISRDNAKNSLYLQMNSLRAEDTAVYYCARAFAYWGQGTLVTVSA
VL: DVVMTQSPLSLPVTLGQPASISCRSSQSLLDSDGKTYLNWELQRPGQSPRRLIYLVSKLDSGVPDRFSGSGSGTDFTLKISRVEAEDVGVYYCWQGTHFPYTFGQGTKVEIKR
B7: HC1 LC1 (antibody, V domains shown)
VH: EVQLLESGGGLVKPGGSLRLSCAASGFDFSRYWMSWIRQAPGKGLEWVSEIHPYSSTINYTPSVKDRFTISRDNAKNSLYLQMNSLRAEDTAVYYCARAFAYWGQGTLVTVSS
VL: DVVMTQSPLSLPVTLGQPASISCKSSQSLLDSDGKTYLNWFQQRPGQSPRRLIYLVSKLDSGVPDRFSGSGSGTDFTLKISRVEAEDVGVYYCWQGTHFPYTFGGGTKVEIKR
B8: HC4 LC1 (antibody, V domains shown)
VH: EVQLVESGGGLVQPGGSLRLSCAASGFDFSRYWMSWVRQAPGKGLEWVAEIHPYSSTINYTPSVKDRFTISRDNAKNSLYLQMNSLRSEDTAVYYCARAFAYWGQGTLVTVSS
VL: DVVMTQSPLSLPVTLGQPASISCKSSQSLLDSDGKTYLNWFQQRPGQSPRRLIYLVSKLDSGVPDRFSGSGSGTDFTLKISRVEAEDVGVYYCWQGTHFPYTFGGGTKVEIKR
B9: HC1 LC2 (antibody, V domains shown)
VH: EVQLLESGGGLVKPGGSLRLSCAASGFDFSRYWMSWIRQAPGKGLEWVSEIHPYSSTINYTPSVKDRFTISRDNAKNSLYLQMNSLRAEDTAVYYCARAFAYWGQGTLVTVSS
VL: DVVMTQSPLSLPVTLGQPASISCRSSQSLLDSDGKTYLNWELQRPGQSPRRLIYLVSKLDSGVPDRFSGSGSGTDFTLKISRVEAEDVGVYYCWQGTHFPYTFGQGTKVEIKR
B10: HC2 LC2 (antibody, V domains shown)
VH: EVQLVESGGGLVQPGGSLRLSCAASGFDFSRYWMSWVRQAPGKGLEWVAEIHPYSSTINYTPSVKDRFIISRDNAKNSVYLQLNSLRAEDTAVYYCARAFAYWGQGTLVTVSS
VL: DVVMTQSPLSLPVTLGQPASISCRSSQSLLDSDGKTYLNWELQRPGQSPRRLIYLVSKLDSGVPDRFSGSGSGTDFTLKISRVEAEDVGVYYCWQGTHFPYTFGQGTKVEIKR
B11: HC0 LC0 (chimeric Ab 1126) (antibody, V domains shown)
VH: EVKLLESGGGLVQPGGSLKLSCAASGFDFSRYWMSWVRQAPGKGLEWIGEIHPYSSTINYTPSVKDKFIISRDNAKNTLYLQMSEVRSEDTALYYCARAFAYWGQGTLVTVSA
VL: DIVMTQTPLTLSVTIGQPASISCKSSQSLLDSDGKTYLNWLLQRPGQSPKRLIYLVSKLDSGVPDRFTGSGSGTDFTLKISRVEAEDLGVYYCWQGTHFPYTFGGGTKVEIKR

Target: T1, human VEGF-A165b (human, UniProt P15692)
T1 chain: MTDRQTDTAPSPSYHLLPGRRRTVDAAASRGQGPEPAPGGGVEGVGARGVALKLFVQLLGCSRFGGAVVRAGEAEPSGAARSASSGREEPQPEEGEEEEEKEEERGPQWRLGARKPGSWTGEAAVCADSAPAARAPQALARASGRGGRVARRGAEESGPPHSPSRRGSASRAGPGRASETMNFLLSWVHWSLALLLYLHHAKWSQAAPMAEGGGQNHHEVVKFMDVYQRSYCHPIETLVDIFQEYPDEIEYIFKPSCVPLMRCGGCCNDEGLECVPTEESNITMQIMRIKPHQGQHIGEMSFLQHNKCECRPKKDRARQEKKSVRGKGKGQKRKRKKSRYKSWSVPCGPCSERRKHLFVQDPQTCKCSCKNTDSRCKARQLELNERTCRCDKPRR
Assay: BLI 25C

| Binder | Kd [nM] |
| --- | --- |
| B1 | 1.5 |
| B2 | 0.6 |
| B3 | 4.4 |
| B4 | 3.2 |
| B5 | 1.17 |
| B6 | 0.6 |
| B7 | 5 |
| B8 | 0.9 |
| B9 | 2.1 |
| B10 | 3.6 |
| B11 | 0.3 |
